Laboratory results as given in article PMC8333356 (Nature Communications, 2021).

B1: Nb95 (VHH)
VHH: QVQLVESGGGLVQAGGSLRLSCAASGRTFSSYSMGWFRQAQGKEREFVATINGNGRDTYYTNSVKGRFTISRDDATNTVYLQMNSLKPEDTAIYYCAADKDVYYGYTSFPNEYEYWGQGTQVTVSS
notes: Cloned in pET-21b(+)
B2: Nb17 (VHH)
VHH: HVQLVESGGGLVQAGGSLRLSCAASGSIFSSNAMSWYRQAPGKQRELVASITSGGNADYADSVKGRFTISRDKNTVYPEMSSLKPADTAVYYCHAVGQEASAYAPRAYWGQGTQVTVSS
notes: Cloned in pET-21b(+); also called class III Nb; source: E. coli BL21 (DE3), purified (cobalt resin, Superdex 75)
B3: Nb34 (VHH)
VHH: DVQLVESGGGLVQAGGSLRLSCAASGFTFSNYVMYWGRQAPGKGREWVSGIDSDGSDTAYASSVKGRFTISRDNAKNTLYLQMNNLKPEDTALYYCVKSKDPYGSPWTRSEFDDYWGQGTQVTVSS
notes: Cloned in pET-21b(+)
B4: Nb21 (VHH)
VHH: QVQLVESGGGLVQAGGSLRLSCAVSGLGAHRVGWFRRAPGKEREFVAAIGANGGNTNYLDSVKGRFTISRDNAKNTIYLQMNSLKPQDTAVYYCAARDIETAEYTYWGQGTQVTVSS
notes: Cloned in pET-21b(+); also called class I Nb; source: E. coli BL21 (DE3), purified (cobalt resin, Superdex 75)

The binders below were run against receptor binding domain (RBD) of SARS-CoV-2 spike (SARS-CoV-2 Wuhan-Hu-1, UniProt P0DTC2) (assay: ELISA). Settings: both partners purified.
B1: binds. B2: binds. B3: binds. B4: binds.
